The target in this assay is CD20 (UniProt P11836). Nature of the assay: cell-based or functional assay.

The record followed here is patent US20240366663A1.

UniProt P11836, sequence (P11836 whole entry): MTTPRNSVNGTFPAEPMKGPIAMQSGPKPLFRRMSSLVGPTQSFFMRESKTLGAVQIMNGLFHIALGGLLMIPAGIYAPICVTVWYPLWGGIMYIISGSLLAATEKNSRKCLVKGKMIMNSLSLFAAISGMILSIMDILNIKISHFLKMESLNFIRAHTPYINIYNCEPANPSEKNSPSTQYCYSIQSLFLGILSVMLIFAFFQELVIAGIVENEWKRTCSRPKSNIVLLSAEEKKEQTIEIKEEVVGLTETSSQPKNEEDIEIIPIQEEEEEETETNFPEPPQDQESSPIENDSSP

For the substance Obinutuzumab (antibody), the EC:50 of percent specific lysis of ARH-77 cells, 4 h caspase assay, AB-202 + 0.01 µg/mL Obinutuzumab came out at 1.21; the EC:50 of percent specific lysis of ARH-77 cells, 4 h caspase assay, AB-202 + 0.1 µg/mL Obinutuzumab came out at 1.05; the EC:50 of percent specific lysis of ARH-77 cells, 4 h caspase assay, AB-202 + 1 µg/mL Obinutuzumab came out at 0.97; the EC:50 of percent specific lysis of ARH-77 cells, 4 h caspase assay, CBNK + 0.01 µg/mL Obinutuzumab was determined as 2.99. For the same substance, the EC:50 of percent specific lysis of ARH-77 cells, 4 h caspase assay, CBNK + 0.1 µg/mL Obinutuzumab was 0.85; the EC:50 of percent specific lysis of ARH-77 cells, 4 h caspase assay, CBNK + 1 µg/mL Obinutuzumab is 0.37; the fold increase of AB-202 killing activity on ARH-77 cells with 1 µg/mL Obinutuzumab versus no antibody turned out to be 2.9 fold; the fold increase of CBNK killing activity on ARH-77 cells with 1 µg/mL Obinutuzumab versus no antibody turned out to be 66.5 fold.

With Rituximab (antibody), the EC:50 of percent specific lysis of ARH-77 cells, 4 h caspase assay, AB-202 + 0.1 µg/mL Rituximab stood at 1.56; the EC:50 of percent specific lysis of ARH-77 cells, 4 h caspase assay, AB-202 + 1 µg/mL Rituximab was 1.49; the EC:50 of percent specific lysis of ARH-77 cells, 4 h caspase assay, CBNK + 0.01 µg/mL Rituximab was found to be 11; the EC:50 of percent specific lysis of ARH-77 cells, 4 h caspase assay, CBNK + 0.1 µg/mL Rituximab was found to be 3.25. Moreover, the EC:50 of percent specific lysis of ARH-77 cells, 4 h caspase assay, CBNK + 1 µg/mL Rituximab is 2.39.
